Several values for one entry are separate records, joined by “and”; a condition that tells them apart may be missing. Equal values may be shown once.
Tests used:
THP sensor (THP4.2) = assay: Response of the THP reporter plasmid (pThpR) to alkaloids; assay type: cell-based; conditions: pThpR reporter fluorescence (FIG. 2b)
[1] = LC/MS analysis of enzymatic reactions of OMT variants with norlaudanosoline (extracted ion chromatogram areas); assay type: cell-based, E. coli; conditions: for Observed EIC Areas 3OH (302.1387 m/z): 6-O-Methylnorlaudanosoline, retention time 2.85 min; for Observed EIC Areas 3OH (302.1387 m/z) / Observed EIC Areas 1OH (330.1700 m/z) / Observed EIC Areas NOR-4OH (288.1230 m/z) / Observed EIC Areas NRT-2OH (316.1543 m/z) / Observed EIC Areas THP-0OH (344.1856 m/z): strains grown in the presence of 10 uM NOR, single replicates of a biological triplicate; for Observed EIC Areas 1OH (330.1700 m/z): norlaudanine, retention time 3.41 min; for Observed EIC Areas NOR-4OH (288.1230 m/z): norlaudanosoline, retention time 2.46 min; for Observed EIC Areas NRT-2OH (316.1543 m/z): norreticuline, retention time 3.14 min; for Observed EIC Areas THP-0OH (344.1856 m/z): tetrahydropapaverine, retention time 3.58 min
Description: (§1) (a) Genetic scheme for O-methyltransferase (OMT) evolution. A plasmid expressing the OMT variant (blue) is co-transformed with a plasmid expressing GFP regulated by a tetrahydropapaverine-responsive biosensor (THP4.1). OMT libraries are plated with norlaudanosoline (NOR) and highly fluorescent colonies are picked, characterized, and the top variant is used for the following round of evolution. (b) Homology structure of the template OMT (GfOMT1) with mutations in evolved variants shown in orange and labelled. The substrate NOR and cofactor S-adenosyl-methionine are shown in pink and green respectively. (c) Fluorescence response of the THP4.1 reporter plasmid cultured with either 0, 10, or 100 uM of (NOR) and an empty plasmid (TAA), GfOMT1 (WT) or evolved OMT variants. (d) Representative ion extracted chromatograms of strains expressing engineered OMT variants, or controls, grown in the presence of 10 uM NOR. All LC-MS chromatograms were selected for the theoretical m/z values and retention times of the respective compounds of interest.
Cells expressing an empty plasmid (TAA) or an OMT variant were cultured in the presence of 10 uM NOR and 1 mg/mL ascorbic acid for 18 hours at 30 C and THP was quantified with LC/MS by fitting to a standard curve (R2=0.9999). Measurements were performed in biological triplicate. […]
The top two rows indicate the ml/z ratio and retention time for compounds of interest (norlaudanosoline (NOR-4OH), 6-O-Methylnorlaudanosoline (3OH), norreticuline (NRT-2OH), norlaudanine (1OH), and tetrahydropapaverine (THP-0OH). All sample measurements were performed in biological triplicate.

[2] = pThpR reporter fluorescence of cells expressing a methyltransferase cultured with norlaudanosoline; assay type: cell-based, E. coli; conditions: cultured with norlaudanosoline (100 uM, 1 mg/mL ascorbic acid, 18 hours, 30° C., FIG. 3)
Description: Cells expressing either an empty plasmid (TAA) or a BIA methyltransferase were co-transformed with pThpR and grown in the presence of 100 uM of norlaudanosoline and 1 mg/mL ascorbic acid for 18 hours at 30° C. and culture fluorescence was subsequently measured. Measurements were performed in biological triplicate.
as §1, with “interest. […]” for “interest.”

Question: Which “responsiveness of the THP sensor to the alkaloid” value (THP sensor (THP4.2)) does the source give for `COc1ccc(C[C@@H]2NCCc3cc(OC)c(O)cc32)cc1O` [norreticuline] here?
Answer: somewhat responsive

Question: For `Oc1ccc(CC2NCCc3cc(O)c(O)cc32)cc1O` (stereo not drawn) [unmethylated substrate, norlaudanosoline], which “responsiveness of the THP sensor to the alkaloid” value (THP sensor (THP4.2)) is on record?
Answer: not

B1: WT: wild-type O-methyltransferase GfOMT1 from Glaucium flavum, template for evolution (protein)
chain: MGVSDNKPESQEVDIKAQAHLWNIIYGFADSLVLRCAVEIGIADIIKSNNGSISVTELASKLPITNVNSDNLYRVLRYLVHMGILKEVSDSNEVKLYSLQPVATLLLRDAERSMVPIILGMTQKDFMIPWHFMKEGLGNDTTAFEKGMGMTIWQYLEGHPEQSNLFNEGMAGETRLLTKSLIDGCRDTFEGLTSLCDVGGGNGTTIKGIYDAFPQIKCSVYDLPHVIASSPEHPNIERIPGDMFKSVPSAQAILLKLILHDWTDEECVNILIKCREAVPKDTGKVIIVDVALEEESQHELTKTRLILDIDMLVNTGGRERSEDDWEKLLKRAGFRGHKIRHIAAIQSVIEAFP
Question: For B1, which “Observed EIC Areas 3OH (302.1387 m/z)” value [1] is on record?
Answer: 838,007.19 and 678,233.01 and 956,624.78

Question: What about the “Observed EIC Areas 1OH (330.1700 m/z)” value [1] of the same molecule?
Answer: 0.00

Question: And the “Observed EIC Areas NOR-4OH (288.1230 m/z)” value (“Observed EIC Areas NOR-4OH” below) [1]?
Answer: 292,886.91 and 183,019.07 and 553,463.54

Question: And the “Observed EIC Areas NRT-2OH (316.1543 m/z)” value (“Observed EIC Areas NRT-2OH” below) [1]?
Answer: 5,016,094.31 and 4,455,448.19 and 5,512,157.20

Question: What about the “Observed EIC Areas THP-0OH (344.1856 m/z)” value (“Observed EIC Areas THP-0OH” below) [1] of the same molecule?
Answer: 715,848.03 and 726,021.76 and 724,935.11

Question: And the “fluorescent signal in E. coli bearing pThpR, panel of methyltransferases” value [2]?
Answer: produced the highest fluorescent signal

B2: Gen1: evolved GfOMT1 O-methyltransferase variant, first round of evolution (protein)
chain: MGVSDNKPESQEVDIKAQAHLWNIIYGFADSLVLRCAVEIGIADIIKSNNGSISVTELASKLPITNVNSDNLYRVLRYLVHMGILKEVSDSNEVKLYSLQPVATLLLRDAERSMVPIILGMTQKDFMIPWHFMKEGLGNDTTAFERGMGMTIWQYLEGHPEQSNLFNEGMAGETRLLAKSLIDGCRDTFEGLTSLCDVGGGNGTTIKGIYDAFPQIKCSVYDLPHVIASSPEHPNIERIPGDMFKSVPSAQAILLKLILHDWTDEECVNILIKCREAVPKDTGKVIIVDVALEEESQHELTKTRLILDIDMLVNTGGRERSEDDWEKLLKRAGFRGHKIRHIAAIQSVIEAFP
Question: With B2 as the molecule, how does the “Observed EIC Areas 3OH (302.1387 m/z)” value [1] read?
Answer: 262,284.74 and 357,195.05 and 194,528.60

Question: And the “Observed EIC Areas 1OH (330.1700 m/z)” value [1]?
Answer: 0.00

Question: And the “Observed EIC Areas NOR-4OH” value [1]?
Answer: 127,968.53 and 189,597.68 and 69,624.59

Question: And the “Observed EIC Areas NRT-2OH” value [1]?
Answer: 5,028,466.49 and 5,328,381.15 and 4,578,048.19

Question: And the “Observed EIC Areas THP-0OH” value [1]?
Answer: 662,206.48 and 685,462.09 and 627,833.84

B3: Gen4: evolved GfOMT1 O-methyltransferase variant, fourth round of evolution (protein)
chain: MGVSDNKPESQEVDIKAQAHLLNIIYGFADSLVLRCAVEIGIADIIKSNNGSISVTELASKLPITNVNSDNLYRVLRYLVHMGILKEVSDSNEVKLYSLQPVATLLLRDAERSMVPIILGMTQKDFMIPWHFMKEGLGNDTTAFERGMGMTIWQYLEGHPEQSNLFNEGMAGETRLMAKSLIDGCRDTFEGLTSLCDVGGGNGTTIKGIYDAFPQIKCSVYDLPHVIASSPEHPNIERIPGDMFKSVPSAQAILLKLVLHDWTDEECVNILIKCREAVPKDTGKVIIVDVALEEESQHELTKTRLILDIDMLVNTGGRERSEDDWEKLLKRAGFRGHKIRHIAAIQSVIEAFP
Question: With B3 as the molecule, how does the “Observed EIC Areas 3OH (302.1387 m/z)” value [1] read?
Answer: 0.00

Question: And the “THP production, selectivity and efficiency” value ([1]; LC/MS, 10 uM NOR, 18 hours at 30 C (FIG. 4d, FIG. 7))?
Answer: produced THP more selectively and efficiently than GEN5

Question: And the “Observed EIC Areas 1OH (330.1700 m/z)” value [1]?
Answer: 1,994,412.63 and 1,353,523.79 and 2,054,059.80

Question: And the “Observed EIC Areas NOR-4OH” value [1]?
Answer: 242,876.32 and 139,427.97 and 249,690.78

Question: What about the “Observed EIC Areas NRT-2OH” value [1] of the same molecule?
Answer: 639,571.41 and 488,824.56 and 684,700.15

Question: And the “Observed EIC Areas THP-0OH” value [1]?
Answer: 10,694,641.10 and 11,406,507.42 and 10,304,271.54

B4: Gen2: evolved GfOMT1 variant, second round, in which the W22L mutation occurred (protein)
chain: MGVSDNKPESQEVDIKAQAHLLNIIYGFADSLVLRCAVEIGIADIIKSNNGSISVTELASKLPITNVNSDNLYRVLRYLVHMGILKEVSDSNEVKLYSLQPVATLLLRDAERSMVPIILGMTQKDFMIPWHFMKEGLGNDTTAFERGMGMTIWQYLEGHPEQSNLFNEGMAGETRLLAKSLIDGCRDTFEGLTSLCDVGGGNGTTIKGIYDAFPQIKCSVYDLPHVIASSPEHPNIERIPGDMFKSVPSAQAILLKLILHDWTDEECVNILIKCREAVPKDTGKVIIVDVALEEESQHELTKTRLILDIDMLVNTGGRERSEDDWEKLLKRAGFRGHKIRHIAAIQSVIEAFP
Question: With B4 as the molecule, how does the “Observed EIC Areas 3OH (302.1387 m/z)” value [1] read?
Answer: 730,076.27 and 485,465.06 and 582,826.88

Question: And the “Observed EIC Areas 1OH (330.1700 m/z)” value [1]?
Answer: 4,013,082.04 and 4,748,195.68 and 4,367,581.54

Question: And the “Observed EIC Areas NOR-4OH” value [1]?
Answer: 641,245.71 and 251,793.95 and 457,481.05

Question: What about the “Observed EIC Areas NRT-2OH” value [1] of the same molecule?
Answer: 2,721,068.90 and 1,499,029.94 and 2,227,163.03

Question: And the “Observed EIC Areas THP-0OH” value [1]?
Answer: 768,144.56 and 825,357.07 and 796,201.94
